Assay results: patent publication US20100137214

Assays:
[1] = target: AGPCHV3 (UniProt P02763)
[2] = system: HSACHV3
[3] = system: C-terminally His-tagged hirudin variant 3 (HV3)
[4] = system: HSAHV3
[5] = target: AGPCHV3, P02763
[6] = target: T1, GSTcle3HV3
T1 chain: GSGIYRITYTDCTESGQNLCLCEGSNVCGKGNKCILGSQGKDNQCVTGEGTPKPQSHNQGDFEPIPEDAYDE

[7] = target: HSACHV3; remark: listed apart in the source

AGPCHV3, P02763, sequence (P02763 whole entry, looked up): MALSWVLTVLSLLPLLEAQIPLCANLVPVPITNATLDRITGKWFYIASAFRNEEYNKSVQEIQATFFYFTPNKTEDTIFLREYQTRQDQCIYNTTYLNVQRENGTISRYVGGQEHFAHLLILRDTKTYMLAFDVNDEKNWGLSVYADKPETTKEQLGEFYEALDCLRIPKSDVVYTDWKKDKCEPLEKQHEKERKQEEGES
C-terminally His-tagged hirudin variant 3 (HV3), sequence (chain, as listed by the source mutant): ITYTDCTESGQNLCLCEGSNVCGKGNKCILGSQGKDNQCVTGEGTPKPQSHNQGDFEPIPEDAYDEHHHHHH

Q: Which “rate of thrombin cleavage of a chromogenic substrate, fusion protein 376 nM without plasmin” value [1] does the source give for human α-thrombin here?
A: In the absence of plasmin, neither fusion protein had substantial effects upon the thrombin activity

Q: And the “rate of thrombin cleavage of a chromogenic substrate, fusion protein 376 nM without plasmin” value [2]?
A: In the absence of plasmin, neither fusion protein had substantial effects upon the thrombin activity

Q: And the “rate of thrombin-mediated chromogenic substrate cleavage, starting value for 1500 nM HSACHV3” value [2]?
A: The former reduced the rate of thrombin-mediated chromogenic substrate cleavage from 89.9% to 5.5%

Q: What about the “rate of thrombin-mediated chromogenic substrate cleavage, end value after 1500 nM HSACHV3 was combined with 600 nM plasmin (HV3 released)” value [3] of the same molecule?
A: The former reduced the rate of thrombin-mediated chromogenic substrate cleavage from 89.9% to 5.5%

Q: And the “% thrombin activity (chromogenic substrate) after reaction of HSAHV3 with plasmin” value [4]?
A: thrombin inhibition was unaffected by the presence of HSAHV3 following reaction with plasmin

B1: plasmin (protein)
chain: KVYLSECKTGNGKNYRGTMSKTKNGITCQKWSSTSPHRPRFSPATHPSEGLEENYCRNPDNDPQGPWCYTTDPEKRYDYCDILECEEECMHCSGENYDGKISKTMSGLECQAWDSQSPHAHGYIPSKFPNKNLKKNYCRNPDRELRPWCFTTDPNKRWELCDIPRCTTPPPSSGPTYQCLKGTGENYRGNVAVTVSGHTCQHWSAQTPHTHNRTPENFPCKNLDENYCRNPDGKRAPWCHTTNSQVRWEYCKIPSCDSSPVSTEQLAPTAPPELTPVVQDCYHGDGQSYRGTSSTTTTGKKCQSWSSMTPHRHQKTPENYPNAGLTMNYCRNPDADKGPWCFTTDPSVRWEYCNLKKCSGTEASVVAPPPVVLLPDVETPSEEDCMFGNGKGYRGKRATTVTGTPCQDWAAQEPHRHSIFTPETNPRAGLEKNYCRNPDGDVGGPWCYTTNPRKLYDYCDVPQCAAPSFDCGKPQVEPKKCPGRVVGGCVAHPHSWPWQVSLRTRFGMHFCGGTLISPEWVLTAAHCLEKSPRPSSYKVILGAHQEVNLEPHVQEIEVSRLFLEPTRKDIALLKLSSPAVITDKVIPACLPSPNYVVADRTECFITGWGETQGTFGAGLLKEAQLPVIENKVCNRYEFLNGRVQSTELCAGHLAGGTDSCQGDSGGPLVCFEKDKYILQGVTSWGLGCARPNKPGVYVRVSRFVTWIEGVMRNN
Q: What does the source list for B1?
A: time- and plasmin-dependent cleavage, Coomassie-stained SDS gel (4000 nM AGPCHV3, 600 nM plasmin) [5]: A time- and plasmin-dependent cleavage pattern of both proteins is shown, yielding a single product for HSACHV3 and two products for AGPCHV3; cleavage pattern by SDS-PAGE after plasmin digestion [6]: plasmin-dependent polypeptide species were detected, one of which co-migrated with unfused GST, and the other, which migrated slightly more rapidly than Pichia pastoris-derived recombinant hexahisitidinylated HV3; cleavage by plasmin, SDS-PAGE and autoradiography [7]: HSACHV3 was cleaved by plasmin over time, reaching near complete conversion; time- and plasmin-dependent cleavage, Coomassie-stained SDS gel (1500 nM HSACHV3, 600 nM plasmin) [7]: A time- and plasmin-dependent cleavage pattern of both proteins is shown, yielding a single product for HSACHV3 and two products for AGPCHV3
